The results in this text go back to patent publication US20240043504A1 (published 2024).

In general, Kd refers to the equilibrium constant for the complex coming apart. A low value points to higher affinity. In general, koff refers to the first-order rate constant of dissociation. High values mean a short-lived complex, low ones a long-lived complex. The kon is the rate constant with which the complex forms. A high value points to fast association.

One experiment addresses SARS-COV-2 RBD-mFc (SARS-CoV-2). As to the kind of experiment: Luminex beads.
The target in experiment [1] is SARS-CoV-2 RBD extracellular domain expressed with a C-terminal mouse IgG2a (SARS-COV-2 RBD-mFc) (SARS-CoV-2).

Residue numbers refer to the chain shown, from its start.

B1: mAb10939 (antibody, V domains shown)
VH: EVQLVESGGGLVQPGGSLRLSCAASGLTVSSNYMNWVRQVPGKGLEWVSVIYSGGSKFYVDSVKGRFTISRHNSKNTLYLQMNSLRPEDTAVYYCTRDAQYYGMDVWGQGTTVTVSS
VL: DIQMTQSPSSLSASVGDRVTITCRASQSISTYLHWYQQKPGEAPKLLIYAASSLQSGVPSRFSGSGSGTDFTLTISSLQPEDFATYYCQQSYSTPPEIFGQGTKLEIKR
B1: the binding result with SARS-COV-2 RBD-mFc is listed as “binds”.

B2: mAb10956 (antibody, V domains shown)
VH: B1 VH with N35S, V40A, K57T, V60A, H72D, P87A, T96A, A99L, Q100I, Y101K
VL: not shown
In experiment [1], B2 registered an equilibrium dissociation constant (Kd) of 0.395 nM and a t1/2 of 1.3 h.

B3: mAb10989 (antibody, V domains shown)
VH: QVQLVQSGAEVKKPGASVKVSCKASGYIFTGYYMHWVRQAPGQGLEWMGWINPNSGGANYAQKFQGRVTLTRDTSITTVYMELSRLRFDDTAVYYCARGSRYDWNQNNWFDPWGQGTLVTVSS
VL: QSALTQPASVSGSPGQSITISCTGTSSDVGTYNYVSWYQQHPGKAPKLMIFDVSNRPSGVSDRFSGSKSGNTASLTISGLQAEDEADYYCSSFTTSSTVVFGGGTKLTVLG
B3: the t1/2 in experiment [1] amounted to 2.07 h.

B4: mAb10921 (antibody, V domains shown)
VH: EVQLVESGGGLVQPGGSLRLSCAASGITVSSNYMSWVRQAPGKGLEWVSVIYSGGSTFYADSVKGRFTISRHNSKNTLYLQMNSLRAEDTAVYYCARERNFDAFDIWGQGTMVTVSS
VL: DIQMTQSPSSVSASVGDRVTITCRASQGISSWLAWYQQKPGKAPKLLIYAASSLQSGVPSRFSGSGSGTDFTLTISSLQPEDFATYYCQQANSFPLFTFGPGTKVDIKR
B4: in the experiment with SARS-COV-2 RBD-mFc, the binding result is “binds”.

B5: mAb10957 (antibody, V domains shown)
VH: EVQLVESGGGLVQPGGSLRLSCAASGVTVSSNYMSWVRQAPGKGLEWVSVIYSGGSTFYADSVKGRFTISRDNSKNTLFLQMNSLRIEDTAVYYCARDLGPYGMDVWGQGTTVTVSS
VL: B4 VL with M4L, S10F, V11L, W32Y, S53T, D70Q, T72I, A91L, F94Y, L96G
In experiment [1], B5 displayed a dissociation constant Kd of at most 0.0279 nM and a t1/2 of at least 19.2 h.

B6: mAb10920 (antibody, V domains shown)
VH: QVQLVESGGGVVQPGRSLRLSCAASGFTFSYYGMHWVRQAPGKGLEWVAVIWYDGSNKFYADSVKGRFTISRDNSKNTLYLQMNSLRAEDTAVYYCAAARPGYYYGMDVWGQGTTVTVSS
VL: DIQMTQSPSSLSASVGDRVTITCRASQGISNYLAWFQQKPGKAPNSLIYAASSLQRGVPSKFSGSGSGTDFTLTISSLQPEDFATYYCQQYNSYPRTFGQGTKVEIKR
For B6, the binding result with SARS-COV-2 RBD-mFc is “binds”.

B7: mAb10984 (antibody, V domains shown)
VH: EVQLVESGGGLVQPGGSLRLSCAASGLTVNRNYMSWVRQAPGKGLEWVSLIYSGGSTYYADSVKGRFTISRDNSKNTLYLQMNSLRLEDTAVYYCARGELGIPYGMDVWGQGTTVTVSS
VL: QSVLTQPPSVSAAPGQKVTISCSGSSSNIGNNYVSWYQQLPGTAPKLLIYDNNKRPSGIPDRFSGSKSGTSATLGITGLQTGDEADYYCGTWDSSLSAGVFGGGTKLTVLG
On to B7, for which, in the experiment with SARS-COV-2 RBD-mFc, the binding result is listed as “binds”.

B8: mAb10930 (antibody, V domains shown)
VH: EVQLVESGGGLVQPGRSLRLSCAASGFTFDDYAMYWVRQAPGKGLEWVSGISWNSGSIGYADSVKGRFTISRDNAKNSLYLQMNSLRAADTALYYCAKDKDWNSRGYYYYGMDVWGQGTTVTVSS
VL: not shown
Regarding B8, the binding result in the experiment with SARS-COV-2 RBD-mFc was “binds”.

B9: mAb10923 (antibody, V domains shown)
VH: QVQLVQSGAEVKKPGASVKVSCKASGYTFINYYIHWVRQAPGQGLEWMGWINPNSGGTNYAQKFQGRVTMTRDTSISTAYMELSRLRSDDTAVYYCAIITIFGVVTWFDPWGQGTLVTVSS
VL: not shown
With B9, the binding result in the experiment with SARS-COV-2 RBD-mFc is “binds”.

B10: mAb10932 (antibody, V domains shown)
VH: EVQLVESGGGLVQSGGSLRLSCAASGLTVSSNYMSWVRQAPGKGLEWVSVIYSGGSTFYSDSVKGRFTISRHNSKNTLYLQMNSLRAEDTAVYYCARARGDAFDIWGQGTMVTVSS
VL: not shown
With B10, in the experiment with SARS-COV-2 RBD-mFc, the binding result was “binds”.

B11: mAb10964 (antibody, V domains shown)
VH: QVQLQESGPGLVKPSETLSLTCTVSGGSINNYYWIWIRQPPGKGLEWIGYIYHSGSTNYNPSLKSRVTISVDTSKNQFSLKVSSVTAADTAVYYCANMVRGVYEDDYWGQGTLVTVSS
VL: DIQMTQSPSSLSASVGDRVTITCRASQSISNYLNWYQQKPGKAPKLLIFAASSLRSGVPSRFSGSGSGTDFTLTISSLHPEDFATYYCQQNYNTPLTFGPGTKVDIKR
In experiment [1], B11 gave a Kd of at most 0.007 nM and a t1/2 of at least 19.2 h.

B12: mAb10934 (antibody, V domains shown)
VH: not shown
VL: DIQMTQSPSSLSASVGDRVTITCQASQDIWNYINWYQQKPGKAPKLLIYDASNLKTGVPSRFSGSGSGTDFTFTISSLQPEDIATYYCQQHDDLPPTFGQGTKVEIKR
With B12, the binding result with SARS-COV-2 RBD-mFc is given as “binds”.

B13: mAb10935 (antibody, V domains shown)
VH: EVQLVESGGGLVQPGGSLRLSCAASGFTVSSNYMSWVRQAPGKGLEWVSLIYSGGSTYYADSVKGRFTISRHNSKNTLYLQMNSLRSEDTAVYYCARVPLGDYYYGMDVWGQGTTVTVSS
VL: B12 VL with W30N, N31K, I33L, K55E, H91S, D93N, P96L, Q100G
Regarding B13, the binding result in the experiment with SARS-COV-2 RBD-mFc is given as “binds”.

B14: mAb10955 (antibody, V domains shown)
VH: EVQLVESGGGLVQPGGSLRVSCAASGFTVSRNYMSWVRQAPGKGLEWVSVIYSGGSTFYADSVKGRFTISRDNSKNTLYLQMNSLRAEDTAIYYCARYIPRFDPWGQGTLVTVSS
VL: B12 VL with W30S, I33L, Y36F, K42R, K55E, H91Y, D93N, P96I, K103R, V104L
As for B14, in experiment [1], the affinity, expressed as Kd, was 0.0592 nM and the t1/2 was 8.23 h.

B15: mAb10938 (antibody, V domains shown)
VH: EVQLVESGGGLVQPGGSLRLSCAVSGFTVSSNYMSWVRQAPGKGLEWVSLIYSGGSTFYADSVKGRFTISRHNSKNTLYLQMNSLRAEDTAVYYCAREGGYSYDYNYWGQGTLVTVSS
VL: B12 VL with W30R, I33L, K55E, S65I, H91Y, D93N, P96I, K103R, V104L
Consider B15, for which the binding result with SARS-COV-2 RBD-mFc is “binds”.

B16: mAb10967 (antibody, V domains shown)
VH: EVQLVESGGGLVQPGGSLRLSCAASGFTVSSNYMSWVRQAPGKGLEWVSVIYPGGSTFYADSVKGRFTISRDNSKNTLYLQMNSLRAEDTAVYYCARDQRDFAWGQGTLVTVSS
VL: B12 VL with W30S, I33L, K55E, S77G, H91Y, D93N, K103R, V104L
Turning to B16, in experiment [1], the Kd is at most 0.0251 nM and the t1/2 is at least 19.2 h.

B17: mAb10954 (antibody, V domains shown)
VH: EVQLVESGGGLVQPGGSLRLSCAASGITVSSNYMSWVRQAPGKGLEWVSLIYSGGSTYYADSVKGRFTISRDNSKNTLYLQMNSLRVEDTAVYYCARDHGMAAAGYNYWGQGTLVTVSS
VL: B12 VL with W30N, N31K, I33L, K55E, S76N, I83F, Y87F, H91Y, D93N, T97A
B17: in experiment [1], the dissociation constant (Kd) is at most 0.0173 nM and the t1/2 is at least 19.2 h.

B18: mAb10936 (antibody, V domains shown)
VH: QVQLVESGGGVVQPGRSLRLSCAASGFTFRNYGMHWVRQAPGKGLEWVSVIWYDGSNRYYADSVKGRFTISRDTSKNTLYLQMNSLRAEDTAVYYCARDPPITGTTGGDAFDIWGQGTMVTVSS
VL: not shown
With B18, the binding result with SARS-COV-2 RBD-mFc is recorded as “binds”.

B19: mAb10982 (antibody, V domains shown)
VH: EVQLVESGGGLVQPGGSLRLSCAASGLTVSSNYMSWVRQAPGKGLEWVSVIYSGGTTYYADSVKGRFTISRHNSKNTLSLQMNSLRAEDTAVYYCARGEGANYYGMDVWGQGTTVTVSS
VL: QSVLTQPPSVSGAPGQRVTISCTGSSSNIGTGYDVHWYQQLPGTAPKLLIYGNSNRPSGVPDRFSGSKSGTSASLAITGLQAEDEADYYCQSYDSSLSGYVVFGGGTKLTVLG
Regarding B19, the binding result with SARS-COV-2 RBD-mFc was “binds”.

B20: mAb10985 (antibody, V domains shown)
VH: EVQLVESGGGLVQPGRSLRLSCAASGFTFDDYAMHWVRQAPGKGLEWVSGISWNRGSIGYADSVKGRFTISRDNAKNSLYLQMSSLRAEDTALYYCAKDGERWDSVVVPSARNGMDVWGQGTTVTVSS
VL: B19 VL with T31A, Y100S, V101Y, G105T, L109V
On to B20, for which the binding result with SARS-COV-2 RBD-mFc is given as “binds”.

B21: mAb10971 (antibody, V domains shown)
VH: B5 VH with V12I, A60S, T68S, F79Y, I87A, G100Y, P101Y
VL: DIQLTQSPSFLSASVGDRVTITCRASQGISTYLAWYQQKPGKAPKLLIYAASTLQSGVPSRFSGSGSGTEFTLTISSLQPEDFATYYCQQLDSYPGLTFGGGTKVEIKR
For B21, in experiment [1], the equilibrium dissociation constant (Kd) was at most 0.0253 nM, the koff was at most 1e-05 s⁻¹, the kon came to 395000 M⁻¹ s⁻¹ and the t1/2 was at least 19.2 h.

B22: mAb10966 (antibody, V domains shown)
VH: EVQLVESGGGLVQPGGSLRLSCAASGLTVSSNYMSWVRQAPGKGLEWVSVIYSGGSTFYADSVKGRFTISRDNSKNTLYLQMNSLRPEDTAVYYCAREGRIAATGYGMDVWGQGTTVTVSS
VL: not shown
On to B22, for which, in experiment [1], the dissociation constant (Kd) is at most 0.0249 nM and the t1/2 is at least 19.2 h.

B23: mAb10969 (antibody, V domains shown)
VH: QVQLVESGGGVVQPGRSLRLSCAASGFTFSSYAMHWVRQAPGKGLEWVAVISYDGSNKYYADSVKGRFTISRDNSKNTLYLQMNSLRAEDTAVYYCARDGRTITMVRGVIDDAFDIWGQGTMVTVSS
VL: not shown
Take B23: in experiment [1], binding was characterised by a dissociation constant (Kd) of 0.0496 nM and the t1/2 came to 12.7 h.

B24: mAb10937 (antibody, V domains shown)
VH: QITLKESGPTLVKPTQTLTLTCTFSGFSLSTNVVGVGWIRQPPGKALEWLALIYWNDDKRYSPSLKSRLTITKDTSKNQVVLTMTNMDPVDTATYYCAHGPTGDYFDYWGQGTLVTVSS
VL: not shown
As to B24, in the experiment with SARS-COV-2 RBD-mFc, the binding result was “binds”.
